This is an account of results in PMC6529188 (Cell, 2019).

Where no end group is shown, it is not given here.

The first data set concerns the molecule itself. As to the kind of experiment: SDS-PAGE without boiling of bicelle-reconstituted protein.
Regarding PGSLSGIIIGVTVAAVVLIVAVFVCKSLLWKKVLP (domain or fragment, UniProt O14763-1 208-242, looked up) [DR5^TMH (human DR5 isoform 1 residues 208-242, C209G), wild type], the “stoichiometry N” value is 3.

Turning to PGSLSGIIIYVTVAAVVLIVAVFVCKSLLWKKVLP (domain or fragment, human, UniProt O14763-1 208-242, looked up) [DR5^TMH G217Y mutant], the “stoichiometry N” value came to 3.

As for PGSLSGIIIGVTVAAVVLIYAVFVCKSLLWKKVLP (domain or fragment, human, UniProt O14763-1 208-242, looked up) [DR5^TMH V227Y mutant], the “stoichiometry N” value was determined as 3.

A further data set deals with the molecule itself. In words: cross-linking.
On to PGSLSGIIIGVTVAAVVLIVAVFVCKSLLWKKVLP (domain or fragment, human, UniProt O14763-1 208-242, looked up, also: His6-tagged, active amine groups blocked with Sulfo-NHS Acetate) [His6-tagged DR5^TMH, wild type (for OG-label)], for which the “stoichiometry N” value was 6.

Regarding PGSLSGIIIYVTVAAVVLIVAVFVCKSLLWKKVLP (domain or fragment, human, UniProt O14763-1 208-242, looked up, also: His6-tagged, active amine groups blocked with Sulfo-NHS Acetate) [His6-tagged DR5^TMH G217Y mutant (for OG-label)], the “stoichiometry N” value is 3.

Regarding PGSLSGIIIGVTVAAVVLIYAVFVCKSLLWKKVLP (domain or fragment, human, UniProt O14763-1 208-242, looked up, also: His6-tagged, active amine groups blocked with Sulfo-NHS Acetate) [His6-tagged DR5^TMH V227Y mutant (for OG-label)], the “stoichiometry N” value came out at 6.
